Where two headings read alike, the source gives them in different places.
B1: [PPE172_(15)], recombinant polyprotein of 15 tandem repeats of the human titin exon 172 PEVK module (other)
chain: PEPPKEVVPEKKAPVAPPKKPEVPPVKVPEPPKEVVPEKKAPVAPPKKPEVPPVKVPEPPKEVVPEKKAPVAPPKKPEVPPVKVPEPPKEVVPEKKAPVAPPKKPEVPPVKVPEPPKEVVPEKKAPVAPPKKPEVPPVKVPEPPKEVVPEKKAPVAPPKKPEVPPVKVPEPPKEVVPEKKAPVAPPKKPEVPPVKVPEPPKEVVPEKKAPVAPPKKPEVPPVKVPEPPKEVVPEKKAPVAPPKKPEVPPVKVPEPPKEVVPEKKAPVAPPKKPEVPPVKVPEPPKEVVPEKKAPVAPPKKPEVPPVKVPEPPKEVVPEKKAPVAPPKKPEVPPVKVPEPPKEVVPEKKAPVAPPKKPEVPPVKVPEPPKEVVPEKKAPVAPPKKPEVPPVKVPEPPKEVVPEKKAPVAPPKKPEVPPVKV
B2: nebulin SH3 (domain or fragment, human, UniProt P20929 8466-8525, looked up)
chain: TAGKIFRAMYDYMAADADEVSFKDGDAIINVQAIDEGWMYGTVQRTGRTGMLPANYVEAI

Key:
nebulin SH3 [1] = target: B2; experiment: ELISA
nebulin SH3 [2] = target: B2; experiment: ELISA; remark: listed apart in the source
nebulin SH3 [3] = target: B2; experiment: SPR
[4] = target: B1; experiment: ELISA
[5] = target: B1; experiment: ELISA

Row | Kd (nebulin SH3 [1]) | Kd (nebulin SH3 [2]) | Kd (nebulin SH3 [3]) | KD in the presence of 50 μg/ml RT11 [4] | KD in the presence of 50 μg/ml RT11 [5] | Binder
1 | 7 µM | 23 µM | 340 µM |  |  | B1
2 |  |  |  | 9.69 µM | 471 µM | B2
